# Test results published in the RNAGym collection of RNA variant scans (doi:10.7554/elife.80360).
# B1: HDV Ribozyme (parent)
# chain: GGCCGGCAUGGUCCCAGCCUCCUCGCUGGCGCCGGCUGGGCAACAUUCCGAGGGGACCGUCCCCUCGGUAAUGGCGAAUGGGACCCA
# Variants of: B1
# Assay: self-cleavage, relative activity (ratio to wild type); higher = more cleavage; co-transcriptional
row,Variant,self-cleavage
1,GGCCGGCAUGGUCCCCGCCUCCUCGCUGGCGCCGGCUGGGCAACAUUCCGAGGGGACCGUCCCCUCGGUAAUGGCGAAUGGGAACCA [A16C C84A],0.655
2,GGCCGGCAUGGUCCCAGCCUCCUCGCUGGCGCCGGCUGGGCAACAUUCCGAGGGGACCGUCCCCUCGUUAAUGGCGAAUGGGACCGA [G68U C86G],0.945
3,GGCCGGCAUGGUCCCAGCCUCCUCGCUGGCGCCGGCUGGGCAACAAUCCGAGGGGACCGUCCCCUCGGUAAUGGCGAAUGGGCCCCA [U46A A83C],0.323
4,GGCCGGCAUGGUCCCAGCCUCCUCGCUGGCGCCGGCUGGGCAACAUUCCGAGGGGGCCGUCCCCUCGGUAAUGCCGAAUGGGACCCA [A56G G74C],0.125
5,GGCCGGCAUGGUCCCAGCCUCCUCGCUGGCGCCGGCUGGGCAACAUUCCGAGGGGGCCUUCCCCUCGGUAAUGGCGAAUGGGACCCA [A56G G59U],1.06
6,GGCCGGCAUGGUCCCAGCCUCCUCGCUGGCGCCGGCUGGUCAAGAUUCCGAGGGGACCGUCCCCUCGGUAAUGGCGAAUGGGACCCA [G40U C44G],0.194
7,GGCCGGCAUGGUCCCAGCCUCCUCGCUGGCGCCGGCUGGGCAACAUUCCGAGUGGACCGUCCCCUCGGUAAUGGCGAAUCGGACCCA [G53U G80C],0.304
8,GGCCGGCAUGGUCCCAGCCUCCUCGCUGGCGCCGGAUGGGCAACAUUCCGAGGGGACCGUCCCCUCGGUAAUGGCGAAUGGGACCAA [C36A C86A],0.134
9,GGCCGGCAUGGUCCAAGCCUCCUCGCCGGCGCCGGCUGGGCAACAUUCCGAGGGGACCGUCCCCUCGGUAAUGGCGAAUGGGACCCA [C15A U27C],0.277
10,GGCCGGCAUGGUCCCAGCCUCCUCGCUGGCGCCGGCUGGGCAACAUUCCGCGCGGACCGUCCCCUCGGUAAUGGCGAAUGGGACCCA [A51C G53C],0.196
11,GGCCGGCAUGGUCCCAGCCUCCUCGCUGGCGCCGGCUAGGCAACAUUCCGAGGGGACCUUCCCCUCGGUAAUGGCGAAUGGGACCCA [G38A G59U],0.182
12,GGCCGGCAUAGUCCCAGCCUCCUCGCUGGCGCCGGCUGGGCAGCAUUCCGAGGGGACCGUCCCCUCGGUAAUGGCGAAUGGGACCCA [G10A A43G],0.217
13,GGCCGGCAUGGUCCCAGCAUCCUCGCUGGCGCCGGCUGGGCAACAUUCCGAGGGGACCGUCUCCUCGGUAAUGGCGAAUGGGACCCA [C19A C62U],0.111
14,GGCCGGCUUGGUCCCAGCCUCCUCGCUGGCGCCGGCUGGGCAACAUUCCGAGGGGACCGUCCCCUCGGUAAUGGCGAAAGGGACCCA [A8U U79A],0.525
15,GGCCGGCAUUGUCCCAGCCUCCUCGCUGGCGCCGGCUGGGCAACAUUCCGAGGGGACCGUCCCCUCGGUAAUGGCGAAUGCGACCCA [G10U G81C],0.101
16,GGCCGGCAUGGUCCCAGCCUCCUCGCUGGCGCCGGCUGGGCAACAUUCCGAGAGCACCGUCCCCUCGGUAAUGGCGAAUGGGACCCA [G53A G55C],0.912
17,GGCCGGCAUGGUCCCAGCCUCCUCGCUGGCGCCGGCUGGGAAACAUUCCGAGCGGACCGUCCCCUCGGUAAUGGCGAAUGGGACCCA [C41A G53C],0.848
18,GGCCGGCAUGGUCCCAGCCUCCUCGCUGGCGCCGGCAGGGCAACAUUCCGAGGGGAUCGUCCCCUCGGUAAUGGCGAAUGGGACCCA [U37A C57U],0.146
19,GGCCGGCAUGGUCACAGCCUCCUCGCUGGCGCCGGCUGGGCAACAUUCCGAGGGAACCGUCCCCUCGGUAAUGGCGAAUGGGACCCA [C14A G55A],0.814
20,GGCCGGCAUGGUCCCAGCCUCCUCGCUGGCGCCGGCUGGGCAACAUUCCGAGGGGAUCGUCACCUCGGUAAUGGCGAAUGGGACCCA [C57U C62A],0.941
21,GGCCGGCAUGGUCCCAGCCUCCUCGCUGGUGCCGGCUGGGCAACAUUCCGAGGGGACCGUCCCCUCGGUAGUGGCGAAUGGGACCCA [C30U A71G],0.633
22,GGCCGGCAUGGUCCCAGCCUCCUCGCUGGCGCCGACUGGGCAACAUUCCGAGGGGACCGUCCCCUCGGUAAUGUCGAAUGGGACCCA [G35A G74U],0.231

row,Variant,self-cleavage
1,GGCCGGCAUGGUCCCAGCCUCCUCGCCGGCGCCGGCUGGGCGACAUUCCGAGGGGACCGUCCCCUCGGUAAUGGCGAAUGGGACCCA [U27C A42G],0
2,GGCCGGCAUGGUCCCAGCCUCCCCGCUGGCGCCGGCUGGGCAACAUUCCGAGGGGACCGUCCCCUCGGUAAUGGCGAAUGGCACCCA [U23C G82C],0.465
3,GGCCGGCAUGGUCCCAGCCUCCUCGCCGGCGCAGGCUGGGCAACAUUCCGAGGGGACCGUCCCCUCGGUAAUGGCGAAUGGGACCCA [U27C C33A],0
4,GGCCGGCAUGGUCCCAGCCUCCUCGCUGGCGCCGGCUGGGCAACAUUCCGAAGGGAACGUCCCCUCGGUAAUGGCGAAUGGGACCCA [G52A C57A],0.963
5,GGCCGGCAUGGUCCCAGCCUCCUCGCUGGCGCCGGCUGGGCAACAUUCCGAGGGGACCGUUCCCUCGAUAAUGGCGAAUGGGACCCA [C61U G68A],0.727
6,GGCCGGCAUGGACCCAGCCUCCUCGCUGGCGCCGGCUGGGCAACAUUCCGAGGGGACCGUCCCCUCGGUAAUUGCGAAUGGGACCCA [U12A G73U],0.0997
7,GGCCGGCAUGGUCCCAGCCUCCUCGCUGGCGCCGGUUGGGCAACAUUCCGAGGGGACCGUCCCCUCGGUAAUGGCGAACGGGACCCA [C36U U79C],0.201
8,GCCCGGCAUGGUGCCAGCCUCCUCGCUGGCGCCGGCUGGGCAACAUUCCGAGGGGACCGUCCCCUCGGUAAUGGCGAAUGGGACCCA [G2C C13G],0.0504
9,GGCCGGCAUGGUCCCAGCCUCCUCGCUGGCGCCGGCUGGUCAACAUUCCGAGGGGACCGUCCCCUCGGUAAUGGCGAACGGGACCCA [G40U U79C],0.185
10,GGCCGGCAUGGUCCCAGCCUCCUCGCUGGCGCCGGUUGGGCAACAUUCCGAGGGGACCGUCCCCUCUGUAAUGGCGAAUGGGACCCA [C36U G67U],0.431
11,GGCCGGCAUGGUCCCAGCCUCCUCGCUGGCGCCGGCUGGGCAACAUUCCAAGGGGACCGUCCCCUCGAUAAUGGCGAAUGGGACCCA [G50A G68A],0.957
12,GGCCGGCAUGUUCCCAGCCUCCUCGCUGGCGCCGGCGGGGCAACAUUCCGAGGGGACCGUCCCCUCGGUAAUGGCGAAUGGGACCCA [G11U U37G],0
13,GGCCGGCAUAGUCCCAGCCUCCUCGCUGGCGCCGGCUGGGCAACAUUCCGAGGGGACCGUCCCCUCGGUAUUGGCGAAUGGGACCCA [G10A A71U],0.712
14,GGCCGGCAUGGUACCAGCCGCCUCGCUGGCGCCGGCUGGGCAACAUUCCGAGGGGACCGUCCCCUCGGUAAUGGCGAAUGGGACCCA [C13A U20G],0.0594
15,GGCCGGCAUGGUCCCAGCCUCCUCGCUGGCGCCAGCUGGGCAACAUUCCGAGGGGACCGUCCCCUUGGUAAUGGCGAAUGGGACCCA [G34A C66U],0.0665
16,GGCCGGCAUGGUCCCAGCCUCCUCGCUGGCGCCGGCUGUGCAACAUUCCGAGGGGACCGUCCCCUGGGUAAUGGCGAAUGGGACCCA [G39U C66G],0.831
17,GGCCGGCAUGGUCCCAGCCUCCUCGCUGGCGCCGGCUGGGCAACAUUCCGAGGGCACCGUCCCCUCGGUAAUGGCGAAUGGAACCCA [G55C G82A],0.447
18,GGCCGGCAUGGUCCCAGCCUCCUCGCUGGCGCCGGCUGGGCAACAUUCAGAGGGGACCGUCCCCUCGGUAAUUGCGAAUGGGACCCA [C49A G73U],0.272
19,GGCCGGCAUGGUCCCAGCCUCCUCGCUGGCGCCGGCUGGGCAACAUUCCGAGGGGACCGUCCCCGAGGUAAUGGCGAAUGGGACCCA [U65G C66A],0.9
20,GGCCGGCAUGGUCCCAGCCUCCUCGCUGGCACCGGCUGGGCAACAUUCCGAGGGGAACGUCCCCUCGGUAAUGGCGAAUGGGACCCA [G31A C57A],0.708
21,GCCCGGCAUGGUCCCAGCCUCCUCGCUGGCGCCGGCUGGGCAACAUUCCGAGGGGACCGUCCCCUCGGUAAUGGCGAAUGGAACCCA [G2C G82A],0.0462
22,GGCCGGCAUGGUCCCAGCCUCCUCGCUGGCGCCGGCUGGGCAACAUUCCGAGGGGACCGCCCCCUCGGUAGUGGCGAAUGGGACCCA [U60C A71G],0.886

row,Variant,self-cleavage
1,GGCCGGCAUGGUCCGAGCCUCCUCGCUGGCGCCGGCUGGGCAACAUUCCGAGGGGACCGUCCCUUCGGUAAUGGCGAAUGGGACCCA [C15G C64U],1.02
2,GGCCGGCAUGGUCCCAGCCUCCUCGGUGGCGCGGGCUGGGCAACAUUCCGAGGGGACCGUCCCCUCGGUAAUGGCGAAUGGGACCCA [C26G C33G],0.285
3,GGCCGGCAUGGUCCCAGCCUCCUCGCUGACGCCGGCUGGGCAACAUUCCGAGGGGACCGUCCCCUAGGUAAUGGCGAAUGGGACCCA [G29A C66A],0.191
4,GGCUGGCAUGGUCCCAGCCUCCUCGCUGGCGCCGGCUGGGCAACAUUCCGAGGGGACCGUCCCCUCGGUAAGGGCGAAUGGGACCCA [C4U U72G],0.361
5,GGCCGGCAUGGUCCCAGCCUCCUCGCUGGCGCCGGCUGGGCAACAUUCCGAGGGGACCGUCCCCUCGGUAAUGGCAAAUGGGACUCA [G76A C85U],1.11
6,GGCCGGCAUGGUCCCAGCCUCCUCGCUGGCGCCGGCUGGGCCACUUUCCGAGGGGACCGUCCCCUCGGUAAUGGCGAAUGGGACCCA [A42C A45U],0.306
7,GGCCGGCAUGGUCCUAGCCUCCUCGCUGGCGCCGGCUGGGCAACAUUCCGAGGGGACCGUCCCCUCGGUUAUGGCGAAUGGGACCCA [C15U A70U],0.831
8,GGCUGGCAUGGUCCCAGCCUCCUCGCUGGCGCCGGCUGGGCAACAUUCCGAGGGGACCAUCCCCUCGGUAAUGGCGAAUGGGACCCA [C4U G59A],0.589
9,GGCCGGCAUGGUCCCAUCCUCCUCGCUGGCGCCGGCUGGGCAACAUUCCGAGGGGACCGUCUCCUCGGUAAUGGCGAAUGGGACCCA [G17U C62U],0.602
10,GGGCGGCAUGGUCCCAGCCUCCUCGCUGGCGCCGGCUCGGCAACAUUCCGAGGGGACCGUCCCCUCGGUAAUGGCGAAUGGGACCCA [C3G G38C],0.192
11,GGCCGGCAUGUUCCCUGCCUCCUCGCUGGCGCCGGCUGGGCAACAUUCCGAGGGGACCGUCCCCUCGGUAAUGGCGAAUGGGACCCA [G11U A16U],0.673
12,GGCCGGCAUGGUCCCAGCCUCCUCGCUGGCGCCGGCUGGGCAACAUUCCGAGGGGACCGUCCCCUGGGUAAUGGUGAAUGGGACCCA [C66G C75U],0.157
13,GGCCGGCAUGGUCCCAGCCUCCUCGCUGGCGCCGGCUGGGCAACAUUCCGGAGGGACCGUCCCCUCGGUAAUGGCGAAUGGGACCCA [A51G G52A],1
14,GGCCGGCAUGGUCCCAGCCUCCUCGCUGGCGCCGGCUGGCCAACAUUCCGAGGGGACCGUCCCCUCGGGAAUGGCGAAUGGGACCCA [G40C U69G],0.361
15,GGCCGGCAUGGUCCCAGCCUCCUCGCUGGCGCCGGCUGGGCAACAAUCCGAGGGGACCGUCCCCUCGGUAAUGGAGAAUGGGACCCA [U46A C75A],0.151
16,GGCCGGCAUGGACCCAGCCUCCUCGCUGGCGCCGGCUGGGCAACAUUCCAAGGGGACCGUCCCCUCGGUAAUGGCGAAUGGGACCCA [U12A G50A],0.229
17,GGCCGGCAUGGUCCCAGCCUCUUCGCUGGCGCCGGCUGGACAACAUUCCGAGGGGACCGUCCCCUCGGUAAUGGCGAAUGGGACCCA [C22U G40A],0.643
18,GGCCGGCAUGGUUCCAGCCUCCUCGCUGGCGCCGGCUGGGCAACAUUCCGAGGGGAACGUCCCCUCGGUAAUGGCGAAUGGGACCCA [C13U C57A],0.831
19,GGCCGGCAUGGUCCCACCCUCCUCGCUGGCGCCGGCUGUGCAACAUUCCGAGGGGACCGUCCCCUCGGUAAUGGCGAAUGGGACCCA [G17C G39U],0.108
20,GGCCGGCAUGGUCCCAGCCUCAUCGCUGGCGCCGGCUGGGCAACAUUCCGAGGGGACCGUCCCCUCGGUAAUGGCGAAGGGGACCCA [C22A U79G],0.0573
